Measurements reported in patent publication US12018066 (TRIAD NATIONAL SECURITY, dated 2024).
Several values for one entry are separate records, joined by “and”; a condition that tells them apart may be missing. Equal entries are not always repeated. Where two headings read alike, the source gives them in different places.

What was measured:
[1] = biological target: T1, SARS-CoV-2 spike protein receptor binding domain (RBD2) (SARS-CoV-2, UniProt P0DTC2 319-537); test: SPR sandwich binning, ligand E08
[2] = biological target: T1, SARS-CoV-2 spike protein receptor …; test: SPR sandwich binning, ligand H05
[3] = biological target: T1, SARS-CoV-2 spike protein receptor …; test: SPR sandwich binning, ligand Anti-His
[4] = biological target: T1, SARS-CoV-2 spike protein receptor …; test: SPR sandwich binning, ligand CR3022
[5] = biological target: T1, SARS-CoV-2 spike protein receptor …; test: SPR, IgG
[6] = biological target: T1, SARS-CoV-2 spike protein receptor …; test: SPR sandwich binning, ligand S01
[7] = biological target: T1, SARS-CoV-2 spike protein receptor …
[8] = biological target: T1, SARS-CoV-2 spike protein receptor …; test: SPR sandwich binning, ligand G07
[9] = biological target: SARS-CoV-2 spike protein on whole SARS-CoV-2 virus (SARS-CoV-2, UniProt P0DTC2 14-1273); test: cell-based or functional assay
[10] = biological target: T1, SARS-CoV-2 spike protein receptor …; test: SPR sandwich binning, ligand F07
[11] = biological target: T1, SARS-CoV-2 spike protein receptor …; test: SPR, immobilized antibody, RBD injected, 1:1 fit
[12] = biological target: T1, SARS-CoV-2 spike protein receptor …; test: SPR
[13] = biological target: T1, SARS-CoV-2 spike protein receptor …; test: SPR sandwich binning, ligand B04
[14] = biological target: T2, human ACE2 receptor on HEK cells (Human ACE2 293 cell line) (human, UniProt Q9BYF1 18-805); test: fluorescence microscopy, PE-labelled IgG on HEK-ACE2 cells without RBD2-sfGFP
T2 construct: whole, on cells; also called HEK-ACE2; ACE2 293 cells
T2 sequence (Q9BYF1 18-805): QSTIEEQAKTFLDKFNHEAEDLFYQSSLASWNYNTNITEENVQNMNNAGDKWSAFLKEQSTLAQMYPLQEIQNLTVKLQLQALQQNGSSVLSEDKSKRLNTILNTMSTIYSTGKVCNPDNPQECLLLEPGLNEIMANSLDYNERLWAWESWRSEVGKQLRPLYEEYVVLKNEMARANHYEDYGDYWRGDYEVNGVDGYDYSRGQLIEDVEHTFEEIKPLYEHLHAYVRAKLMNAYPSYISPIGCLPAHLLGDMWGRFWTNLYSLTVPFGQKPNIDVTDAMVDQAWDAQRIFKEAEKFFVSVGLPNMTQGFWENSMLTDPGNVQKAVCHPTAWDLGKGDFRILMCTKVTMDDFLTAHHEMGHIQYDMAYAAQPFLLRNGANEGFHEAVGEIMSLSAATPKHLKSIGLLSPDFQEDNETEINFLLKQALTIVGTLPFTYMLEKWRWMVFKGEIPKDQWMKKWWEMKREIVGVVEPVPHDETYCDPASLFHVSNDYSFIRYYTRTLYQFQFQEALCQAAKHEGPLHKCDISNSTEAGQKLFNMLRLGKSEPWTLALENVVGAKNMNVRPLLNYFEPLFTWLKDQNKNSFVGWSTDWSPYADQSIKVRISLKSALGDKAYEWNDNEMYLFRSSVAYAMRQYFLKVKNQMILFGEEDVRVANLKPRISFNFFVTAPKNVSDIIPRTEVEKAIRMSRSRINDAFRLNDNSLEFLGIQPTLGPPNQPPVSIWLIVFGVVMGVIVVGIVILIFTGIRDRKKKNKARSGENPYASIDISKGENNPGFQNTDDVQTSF

[15] = biological target: T1, SARS-CoV-2 spike protein receptor …; test: SPR sandwich binning, ligand NN54
[16] = biological target: T1, SARS-CoV-2 spike protein receptor …; test: SPR sandwich binning, ligand E01
[17] = biological target: T1, SARS-CoV-2 spike protein receptor …; test: SPR sandwich binning, ligand H01
[18] = biological target: T1, SARS-CoV-2 spike protein receptor …; remark: listed apart in the source
[19] = biological target: SARS-CoV spike protein receptor binding domain (RBD1) (SARS-CoV, UniProt P59594 306-527); test: ELISA, minibodies (FIG. 6)
[20] = biological target: T1, SARS-CoV-2 spike protein receptor …; remark: listed apart in the source

Binder | normalized analyte binding to RBD2 held by the immobilized ligand [1] | normalized analyte binding to RBD2 held by the immobilized ligand [2] | normalized analyte binding to RBD2 held by the immobilized ligand [3] | normalized analyte binding to RBD2 held by the immobilized ligand [4] | Kd [5] | normalized analyte binding to RBD2 held by the immobilized ligand [6] | normalized analyte binding to RBD2 held by the immobilized ligand [8] | NT50 (nM), half neutralization titer [9] | Nmax (%), neutralization maximum [9] | normalized analyte binding to RBD2 held by the immobilized ligand [10] | Kd [11] | Kd [12] | normalized analyte binding to RBD2 held by the immobilized ligand [13] | normalized analyte binding to RBD2 held by the immobilized ligand [15] | normalized analyte binding to RBD2 held by the immobilized ligand [16] | normalized analyte binding to RBD2 held by the immobilized ligand [17] | binding result [19] | other results
B04 IgG1 (antibody, V domains shown) VH: QVQLVESGAEVKKPGASVKVSCKASGYTFTRYYMHWVRQAPGQGLEWMGIINPSGGTTSYAQKFQGRVTMTRDTSTSTVYMELSSLRSEDTAVYYCARSFGELTSFDYWGQGTLVTVSS VL: SYVLTQPPSVSVAPGKTARITCGGNNIGIRSVHWYQQKPGQAPVLVIYYDSDRPSGIPERFSGSKSGNTATLTISRVEAGDEADYYCQVWDSSSDHPVFGGGTKLTVL | 2.24 | 1.87 | 1.68 | 2.22 | 100 nM and 300 nM | -0.59 | -0.07 | 56.7 nM | 53.3% | 0.05 | 210 nM | 210 nM | -0.11 | 2.5 | -0.15 | 0.71 | – | Kd [7]: 208 nM; binding result [14]: no binding (tested: 1 ug/mL)
E08 IgG1 (antibody, V domains shown) VH: QVQLVQSGAEVKKPGSSVKVSCKASGGTFSSYAISWVRQAPGQGLEWMGGIIPIFGTANYAQKFQGRVTITADESTSTAYMELSSLRSEDTAVYYCARASGRWLQFWHYYGMDVWGQGTTVTVSS VL: SYVLTQPPSVSVAPGKTARITCGGNNIGWKSVHWYQQKPGQAPVLVVYDDSDRPSGIPERFSGSNSGNTATLTISRVEAGDEADYYCQVWDSSSDLVVFGGGTKLTVL | -0.09 | -0.11 | 1.81 | -0.08 | – | 1.85 | 2.62 | 52.9 nM | 70.4% | 1.32 | 27 nM | 27 nM | 2.12 | – | 2.15 | 0.13 | – | Kd [18]: 26 nM
E01 minibody (scFv-Fc) (Fc fusion, also called E1) SYELTQPPSVSVAPGETARITCGGDNIGRRHVHWYQQKPGQAPVLVIYDDSDRPSGIPDRFSGSNSGNTATLTIGRVEAGDEADYYCQVWGSSNDPHVFGTGTKLTVLSGGSTITSNNVYYTKLSSSGTQVQLQQWGAGLLKPSETLSLKCAVYGGSFSGYYWGWIRQSTGKGLEWIGEINRSGSTNYNPSLKSRVTISVDTSKNQFSLKLSSVTAADTAVYYCARGGARYYYGSGSYRSTPRPYYFDYWGQGTLVTVSS | – | – | – | – | – | – | – | – | – | – | 21.5 nM | 21.5 nM | – | – | – | – | no binding | –
G07 IgG1 (antibody, V domains shown) VH: QVQLVQSGAEVKKPGESLKISCKGSGYSFTSYWIGWVRQMPGKGLEWMGIIYPGDSDIRYSPSFQGQVTISADKSFSSAYLQWSSLKASDTAMYYCARLGATGAFDIWGQGTTVTVSS VL: QSVLIQPPSASGTPGQRVTISCSGSNSNFGSNSVSWYQQRPGTAPKLLIEGNNQRPSGVPERFSGSKSGTSASLAISGLQSEDEAEYSCASWDDSLNAFVFGPGTKLTVL | 1.86 | 1.03 | 0.92 | 1.56 | 2000 nM | – | -0.05 | – | – | 0.08 | 320 nM | 320 nM | -0.03 | 1.73 | 1.57 | 0.94 | – | Kd [20]: 246 nM; binding result [14]: no binding (tested: 1 ug/mL)
S01 minibody (scFv-Fc) (Fc fusion, also called 501) EIVMTQSPSSLSASVGDSVTITCQASQDISNYLNWYQQKPGKAPKLLIYDASNLETGVPSRFSGGGSGTDFTLTITSLQPEDIATYYCQQYDNFPPTFGPGTKVDIKSGGSTITSYNVYYTKLSSSDTQVQLVESGGGLVKPGGSLRLSCAASGFTVGSNYMSWVRQAPGKGLEWVSVIYSGGSTYYADSVKGRFTISRDNSKNTLYLQMNSLRAEDTAVYYCARGSSGAWYFDLWGRGTLVTVSS | – | – | – | – | – | – | – | – | – | – | – | 22700 nM | – | – | – | – | no binding | –
E01 IgG1 (antibody, V domains shown, also called E1) VH: QVQLQQWGAGLLKPSETLSLKCAVYGGSFSGYYWGWIRQSTGKGLEWIGEINRSGSTNYNPSLKSRVTISVDTSKNQFSLKLSSVTAADTAVYYCARGGARYYYGSGSYRSTPRPYYFDYWGQGTLVTVSS VL: SYELTQPPSVSVAPGETARITCGGDNIGRRHVHWYQQKPGQAPVLVIYDDSDRPSGIPDRFSGSNSGNTATLTIGRVEAGDEADYYCQVWGSSNDPHVFGTGTKLTVL | 2.33 | 2.18 | 2 | 2.39 | 48 nM | 0.03 | 2.43 | 6.4 nM | 104% | 0.62 | 90 nM | 90 nM | -0.09 | 2.78 | -0.07 | 2.35 | – | Kd [20]: 90 nM
H01 IgG1 (antibody, V domains shown, also called H1) VH: QVTLKESGPVLVKPTETLTLTCTVSGFSLSNARMGVSWIRQPPGKALEWLAHIFSNGEKSYSTSLKSRLTISKDTSKSQVVLTMTNMDPVDTATYYCARTLDYYDSSGYLVGGAFDIWGQGTMVTVSS VL: QPGLTQPPSVSLAPGQTARITCGGNNIGSKSVHWYQQKPGQAPVLVVYDDSDRPSGIPERFSGSNAGNTATLTISRVEAGDEADYYCQVWDSRSDQYVFGTRTKLTVL | -0.03 | -0.05 | 1.75 | -0.05 | – | -0.11 | 1.28 | 69.6 nM | 87.7% | 0.03 | 800 nM | 800 nM | 0.77 | – | 0.41 | -0.03 | – | Kd [18]: 721 nM
F07 minibody (scFv-Fc) (Fc fusion) SYVLTQPPSVSVAPGQTARITCGGNNIGSKSVHWYQQKPGQAPVLVVYDDSDRPSGIPERFSGSNSGNTATLIISRVEAGDEADYYCQVWDSSSVHYVFGTGTKLTVLSGGSTITSYNVYYTKLSSSGTQVQLVQSGAEVKKPGSSVRVSCKVSGYTFTGYYMHWVRQAPGQGLEWMGIINPSGGSTSYAQKFQGRVTMTRDTSTSTVYMELSSLRSEDTAVYYCARVRVGASDAFDIWGQGTMVTVSS | – | – | – | – | – | – | – | – | – | – | 61.5 nM | 61.5 nM | – | – | – | – | no binding | –
